T1: cynomolgus monkey IL-13 (cynomolgus monkey, UniProt Q5I6E4 19-132 (Macaca thibetana entry), limits assumed)
T1 construct: also called cyno IL-13
T1 chain: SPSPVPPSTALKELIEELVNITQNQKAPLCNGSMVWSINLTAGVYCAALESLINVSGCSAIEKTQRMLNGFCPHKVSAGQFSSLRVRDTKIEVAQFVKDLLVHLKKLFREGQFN

T2: cyno IL-17AA (cynomolgus monkey, UniProt A0A2K5TTB0 24-155)
T2 construct: Recombinant protein in the SPR assay; also called cynomolgus monkey IL-17AA; IL-17A homodimer (cynomolgus monkey)
T2 sequence: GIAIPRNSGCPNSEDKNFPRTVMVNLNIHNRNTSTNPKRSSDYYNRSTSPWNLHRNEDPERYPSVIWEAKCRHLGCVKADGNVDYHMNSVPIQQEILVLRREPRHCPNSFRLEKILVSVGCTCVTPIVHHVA

T3: human IL-17AA (human, UniProt Q16552 20-155, limits assumed)
T3 construct: Bought from R&D Systems, cat #317-ILB-050; also called IL-17A homodimer
T3 sequence: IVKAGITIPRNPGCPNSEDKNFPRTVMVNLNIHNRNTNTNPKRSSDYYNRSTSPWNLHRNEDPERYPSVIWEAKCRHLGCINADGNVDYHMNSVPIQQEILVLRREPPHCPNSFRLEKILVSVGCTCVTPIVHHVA

T4: human IL-17FF (human, UniProt Q96PD4 31-163)
T4 sequence: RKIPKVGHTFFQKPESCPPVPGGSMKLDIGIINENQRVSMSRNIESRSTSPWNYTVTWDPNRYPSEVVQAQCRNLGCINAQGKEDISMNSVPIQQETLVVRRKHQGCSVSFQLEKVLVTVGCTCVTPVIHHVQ

T5: human IL-17AF heterodimer (human, UniProt Q16552 24-155; Q96PD4 31-163, limits assumed)
T5 sequence 1: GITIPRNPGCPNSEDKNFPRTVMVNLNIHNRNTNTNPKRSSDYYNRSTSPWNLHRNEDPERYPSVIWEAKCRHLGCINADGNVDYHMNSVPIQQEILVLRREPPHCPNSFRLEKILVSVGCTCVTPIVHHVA
T5 sequence 2: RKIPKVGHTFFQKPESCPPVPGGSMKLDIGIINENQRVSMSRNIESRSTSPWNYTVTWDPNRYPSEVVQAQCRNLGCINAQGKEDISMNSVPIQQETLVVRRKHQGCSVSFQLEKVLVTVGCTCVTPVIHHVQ


Columns and labels:
human IL-13 R130Q = target: T6, human IL-13 R130Q (human, UniProt P35225 35-146, limits assumed); assay: SPR (BIAcore T200), antibody captured by anti-human Fc on CM5 chip, cytokine injected, 25 C, 1:1 Langmuir model
T6 construct: Common IL-13 variant
Method: (§1) Binding affinities of the anti-IL-17/anti-IL-13 bispecific antibody against human and cynomolgus monkey IL-13 cytokines were measured with a BIAcore™-T200 instrument. Anti-IL-13 antibody was captured by mouse anti-human Fc antibody (GE Healthcare, cat #BR-1008-39) coated on CM5 biosensor chips to achieve approximately 500 response units (RU). Four-fold serial dilutions (50 nM to 49 pM) of human IL-13, human IL-13R130Q (a common IL-13 variant associated with allergy and asthma, see Vladich et al., 2005, J. Clin Invest., 115:747-754), and cyno IL-13 were injected in FIBS-P buffer (GE Healthcare) at 25° C. with a flow rate of 30 μl/min. Association rates (kₒₙ) and dissociation rates (koff) were calculated using a simple one-to-one Langmuir binding model (BIAcore T200 Evaluation Software version 2.0). The equilibrium dissociation constant (KD) was calculated as the ratio koff/kₒₙ.

cynomolgus monkey IL-13 = target: T1, cynomolgus monkey IL-13; assay: as above
Method: as §1

human IL-13 = target: T7, human IL-13 (human, UniProt P35225 35-146, limits assumed); assay: as above
T7 construct: also called recombinant human IL-13
Method: as §1

cyno IL-17AA = target: T2, cyno IL-17AA; assay: SPR (BIAcore T200), bispecific antibody captured by anti-human Fc on CM5 chip, cytokine injected, 25 C, 1:1 Langmuir model
Method: (§2) Binding affinities of anti-IL-17/anti-IL-13 bispecific antibody against various IL-17 cytokines were measured by Surface Plasmon Resonance (SRP) using a BIAcore™-T200 instrument. Anti-IL-17/anti-IL-13 bispecific antibody was captured by mouse anti-human Fc antibody (GE Healthcare, cat #BR-1008-39) coated on CM5 biosensor chips to achieve approximately 500 response units (RU). For kinetics measurements, five-fold serial dilutions (20 nM to 32 pM) of human IL-17AA (R&D Systems, cat #317-ILB-050), human IL-17AF heterodimer, human IL-17FF (R&D Systems, cat #1335-IL-025/CF), cyno IL-17AA, cyno IL-17AF, and cyno IL-17FF were injected in HBS-P buffer (GE Healthcare) at 25° C. with a flow rate of 30 μl/min. Association rates (kₒₙ) and dissociation rates (koff) were calculated using a simple one-to-one Langmuir binding model (BlAcore T200 Evaluation Software version 2.0). The equilibrium dissociation constant (KD) was calculated as the ratio koff/kₒₙ.

human IL-17AA = target: T3, human IL-17AA; assay: as above
Method: as §2

human IL-17FF = target: T4, human IL-17FF; assay: cell-based or functional assay
[1] = target: T5, human IL-17AF heterodimer; assay: cell-based or functional assay

T6 sequence (P35225 35-146 limits assumed, stated change not applied): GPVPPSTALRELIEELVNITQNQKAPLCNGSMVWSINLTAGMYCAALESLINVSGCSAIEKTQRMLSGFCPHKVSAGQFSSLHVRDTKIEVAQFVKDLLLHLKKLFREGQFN
T7 sequence (P35225 other isoform, or with tags, fused parts or gaps limits assumed): as the sequence (P35225 35-146 limits assumed, stated change not applied) above, with Q110R counted along it

Row | Kd (human IL-13 R130Q) [nM] | koff (human IL-13 R130Q) [s⁻¹] | kon (human IL-13 R130Q) [M⁻¹ s⁻¹] | Kd (cynomolgus monkey IL-13) [nM] | koff (cynomolgus monkey IL-13) [s⁻¹] | kon (cynomolgus monkey IL-13) [M⁻¹ s⁻¹] | Kd (human IL-13) [nM] | koff (human IL-13) [s⁻¹] | kon (human IL-13) [M⁻¹ s⁻¹] | Kd (cyno IL-17AA) [nM] | koff (cyno IL-17AA) [s⁻¹] | kon (cyno IL-17AA) [M⁻¹ s⁻¹] | Kd (human IL-17AA) [nM] | koff (human IL-17AA) [s⁻¹] | kon (human IL-17AA) [M⁻¹ s⁻¹] | IC90 (molar ratio), inhibition of IL-17FF-induced G-CSF expression in normal human foreskin fibroblasts (ELISA) (human IL-17FF) [molar ratio] | IC90 (molar ratio), inhibition of IL-17AF-induced G-CSF expression in normal human foreskin fibroblasts (ELISA) [1] [molar ratio] | Binder
1 | < 0.001 | < 1e-06 | 864000 | < 0.001 | < 1e-06 | > 1e+06 | 0.0355 | 2.07e-05 | 584000 | 0.033 | 0.000291 | 8.89e+06 | 0.021 | 0.000118 | 5.55e+06 | – | – | anti-IL-13/IL-17 bispecific antibody (bispecific antibody, human IgG4 S228P, Knobs-into-holes human IgG4; also called anti-IL-17/anti-IL-13 bispecific antibody; anti-IL-13/IL-17 IgG4 bispecific antibody) heavy 1: not shown VL 1: DIVLTQSPDSLSVSLGERATINCRASKSVDSYGNSFMHWYQQKPGQPPKLLIYLASNLESGVPDRFSGSGSGTDFTLTISSLQAEDVAVYYCQQNNEDPRTFGGGTKVEIKR heavy 2: EVQLVESGGGLVQPGRSLRLSCAASGFTFDDYAMHWVRQAPGKGLEWVSGINWSSGGIGYADSVKGRFTISRDNAKNSLYLQMNSLRAEDTALYYCARDIGGFGEFYWNFGLWGRGTLVTVSSASTKGPSVFPLAPCSRSTSESTAALGCLVKDYFPEPVTVSWNSGALTSGVHTFPAVLQSSGLYSLSSVVTVPSSSLGTKTYTCNVDHKPSNTKVDKRVESKYGPPCPPCPAPEFLGGPSVFLFPPKPKDTLMISRTPEVTCVVVDVSQEDPEVQFNWYVDGVEVHNAKTKPREEQFNSTYRVVSVLTVLHQDWLNGKEYKCKVSNKGLPSSIEKTISKAKGQPREPQVYTLPPSQEEMTKNQVSLSCAVKGFYPSDIAVEWESNGQPENNYKTTPPVLDSDGSFFLVSRLTVDKSRWQEGNVFSCSVMHEALHNHYTQKSLSLSLGK VL 2: not shown
2 | – | – | – | – | – | – | – | – | – | – | – | – | – | – | – | ~1 | ~1 | Parental anti-IL17 antibody (antibody, V domains shown) VH: EVQLVESGGGLVQPGRSLRLSCAASGFTFDDYAMHWVRQAPGKGLEWVSGINWSSGGIGYADSVKGRFTISRDNAKNSLYLQMNSLRAEDTALYYCARDIGGFGEFYWNFGLWGRGTLVTVSS VL: not shown
